Reference: US20240279278A1, “NMU RECEPTOR 2 AGONISTS” (Boehringer Ingelheim International GmbH, priority 2023, published 2024)

T1: human neuromedin U receptor 1 (human, UniProt Q9HB89 24-426)
T1 sequence (looked up): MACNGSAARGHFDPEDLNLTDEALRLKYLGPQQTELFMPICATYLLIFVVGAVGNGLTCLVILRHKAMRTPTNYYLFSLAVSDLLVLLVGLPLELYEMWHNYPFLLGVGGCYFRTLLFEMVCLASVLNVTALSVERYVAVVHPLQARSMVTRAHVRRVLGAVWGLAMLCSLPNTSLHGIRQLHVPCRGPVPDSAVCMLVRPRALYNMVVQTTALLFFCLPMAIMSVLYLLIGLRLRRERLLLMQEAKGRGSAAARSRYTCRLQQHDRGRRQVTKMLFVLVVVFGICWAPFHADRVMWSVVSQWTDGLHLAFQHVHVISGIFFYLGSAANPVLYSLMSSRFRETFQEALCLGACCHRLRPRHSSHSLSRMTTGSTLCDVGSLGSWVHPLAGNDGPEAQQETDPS

B1: C20DA-gGlu4-Sar15-AEPipAc-Tyr-Phe-NMeLeu-Nle-Dbu-NMeAla-Arg-Gly-NH2 (peptide)
peptide: EEEEXXXXXXXXXXXXXXXXYFLXXARG
HELM: PEPTIDE1{[O=C(O)CCCCCCCCCCCCCCCCCCC(=O)[*:2]].[gGlu].[gGlu].[gGlu].[gGlu].[Sar].[Sar].[Sar].[Sar].[Sar].[Sar].[Sar].[Sar].[Sar].[Sar].[Sar].[Sar].[Sar].[Sar].[Sar].[O=C(CN1CCN(CCN[*:1])CC1)[*:2]].Y.F.[meL].[Nle].[Dab].[meA].R.G.[am]}$$$$V2.0
SMILES: CCCC[C@H](NC(=O)[C@H](CC(C)C)N(C)C(=O)[C@H](Cc1ccccc1)NC(=O)[C@H](Cc1ccc(O)cc1)NC(=O)CN1CCN(CCNC(=O)CN(C)C(=O)CN(C)C(=O)CN(C)C(=O)CN(C)C(=O)CN(C)C(=O)CN(C)C(=O)CN(C)C(=O)CN(C)C(=O)CN(C)C(=O)CN(C)C(=O)CN(C)C(=O)CN(C)C(=O)CN(C)C(=O)CN(C)C(=O)CN(C)C(=O)CC[C@H](NC(=O)CC[C@H](NC(=O)CC[C@H](NC(=O)CC[C@H](NC(=O)CCCCCCCCCCCCCCCCCCC(=O)O)C(=O)O)C(=O)O)C(=O)O)C(=O)O)CC1)C(=O)N[C@@H](CCN)C(=O)N(C)[C@@H](C)C(=O)N[C@@H](CCCNC(=N)N)C(=O)NCC(N)=O
B2: C20DA-gGlu4-Sar12-AEPipAc-Tyr-Phe-NMeLeu-Nle-Orn-NMeAla-Arg-Gly-NH2 (peptide)
peptide: EEEEXXXXXXXXXXXXXYFLXXARG
HELM: PEPTIDE1{[O=C(O)CCCCCCCCCCCCCCCCCCC(=O)[*:2]].[gGlu].[gGlu].[gGlu].[gGlu].[Sar].[Sar].[Sar].[Sar].[Sar].[Sar].[Sar].[Sar].[Sar].[Sar].[Sar].[Sar].[O=C(CN1CCN(CCN[*:1])CC1)[*:2]].Y.F.[meL].[Nle].[Orn].[meA].R.G.[am]}$$$$V2.0
SMILES: CCCC[C@H](NC(=O)[C@H](CC(C)C)N(C)C(=O)[C@H](Cc1ccccc1)NC(=O)[C@H](Cc1ccc(O)cc1)NC(=O)CN1CCN(CCNC(=O)CN(C)C(=O)CN(C)C(=O)CN(C)C(=O)CN(C)C(=O)CN(C)C(=O)CN(C)C(=O)CN(C)C(=O)CN(C)C(=O)CN(C)C(=O)CN(C)C(=O)CN(C)C(=O)CN(C)C(=O)CC[C@H](NC(=O)CC[C@H](NC(=O)CC[C@H](NC(=O)CC[C@H](NC(=O)CCCCCCCCCCCCCCCCCCC(=O)O)C(=O)O)C(=O)O)C(=O)O)C(=O)O)CC1)C(=O)N[C@@H](CCCN)C(=O)N(C)[C@@H](C)C(=O)N[C@@H](CCCNC(=N)N)C(=O)NCC(N)=O
B3: C18DA-gGlu3-Sar15-PipAc-Tyr-Phe-NMeLeu-Nle-Dbu-NMeAla-Arg-Gly-NH2 (peptide)
peptide: EEEXXXXXXXXXXXXXXXXYFLXXARG
HELM: PEPTIDE1{[O=C(O)CCCCCCCCCCCCCCCCC(=O)[*:2]].[gGlu].[gGlu].[gGlu].[Sar].[Sar].[Sar].[Sar].[Sar].[Sar].[Sar].[Sar].[Sar].[Sar].[Sar].[Sar].[Sar].[Sar].[Sar].[O=C(CN1CCN([*:1])CC1)[*:2]].Y.F.[meL].[Nle].[Dab].[meA].R.G.[am]}$$$$V2.0
SMILES: CCCC[C@H](NC(=O)[C@H](CC(C)C)N(C)C(=O)[C@H](Cc1ccccc1)NC(=O)[C@H](Cc1ccc(O)cc1)NC(=O)CN1CCN(C(=O)CN(C)C(=O)CN(C)C(=O)CN(C)C(=O)CN(C)C(=O)CN(C)C(=O)CN(C)C(=O)CN(C)C(=O)CN(C)C(=O)CN(C)C(=O)CN(C)C(=O)CN(C)C(=O)CN(C)C(=O)CN(C)C(=O)CN(C)C(=O)CN(C)C(=O)CC[C@H](NC(=O)CC[C@H](NC(=O)CC[C@H](NC(=O)CCCCCCCCCCCCCCCCC(=O)O)C(=O)O)C(=O)O)C(=O)O)CC1)C(=O)N[C@@H](CCN)C(=O)N(C)[C@@H](C)C(=O)N[C@@H](CCCNC(=N)N)C(=O)NCC(N)=O
B4: C18DA-gGlu4-Sar12-AEPipAc-Tyr-Phe-NMeLeu-Nle-Arg-Pro-Arg-Gly-NH2 (peptide)
peptide: EEEEXXXXXXXXXXXXXYFLXRPRG
HELM: PEPTIDE1{[O=C(O)CCCCCCCCCCCCCCCCC(=O)[*:2]].[gGlu].[gGlu].[gGlu].[gGlu].[Sar].[Sar].[Sar].[Sar].[Sar].[Sar].[Sar].[Sar].[Sar].[Sar].[Sar].[Sar].[O=C(CN1CCN(CCN[*:1])CC1)[*:2]].Y.F.[meL].[Nle].R.P.R.G.[am]}$$$$V2.0
SMILES: CCCC[C@H](NC(=O)[C@H](CC(C)C)N(C)C(=O)[C@H](Cc1ccccc1)NC(=O)[C@H](Cc1ccc(O)cc1)NC(=O)CN1CCN(CCNC(=O)CN(C)C(=O)CN(C)C(=O)CN(C)C(=O)CN(C)C(=O)CN(C)C(=O)CN(C)C(=O)CN(C)C(=O)CN(C)C(=O)CN(C)C(=O)CN(C)C(=O)CN(C)C(=O)CN(C)C(=O)CC[C@H](NC(=O)CC[C@H](NC(=O)CC[C@H](NC(=O)CC[C@H](NC(=O)CCCCCCCCCCCCCCCCC(=O)O)C(=O)O)C(=O)O)C(=O)O)C(=O)O)CC1)C(=O)N[C@@H](CCCNC(=N)N)C(=O)N1CCC[C@H]1C(=O)N[C@@H](CCCNC(=N)N)C(=O)NCC(N)=O
B5: C20DA-gGlu4-Sar12-AEPipAc-Tyr-Phe-NMeLeu-Nle-Dbu-Pro-Arg-Gly-NH2 (peptide)
peptide: EEEEXXXXXXXXXXXXXYFLXXPRG
HELM: PEPTIDE1{[O=C(O)CCCCCCCCCCCCCCCCCCC(=O)[*:2]].[gGlu].[gGlu].[gGlu].[gGlu].[Sar].[Sar].[Sar].[Sar].[Sar].[Sar].[Sar].[Sar].[Sar].[Sar].[Sar].[Sar].[O=C(CN1CCN(CCN[*:1])CC1)[*:2]].Y.F.[meL].[Nle].[Dab].P.R.G.[am]}$$$$V2.0
SMILES: CCCC[C@H](NC(=O)[C@H](CC(C)C)N(C)C(=O)[C@H](Cc1ccccc1)NC(=O)[C@H](Cc1ccc(O)cc1)NC(=O)CN1CCN(CCNC(=O)CN(C)C(=O)CN(C)C(=O)CN(C)C(=O)CN(C)C(=O)CN(C)C(=O)CN(C)C(=O)CN(C)C(=O)CN(C)C(=O)CN(C)C(=O)CN(C)C(=O)CN(C)C(=O)CN(C)C(=O)CC[C@H](NC(=O)CC[C@H](NC(=O)CC[C@H](NC(=O)CC[C@H](NC(=O)CCCCCCCCCCCCCCCCCCC(=O)O)C(=O)O)C(=O)O)C(=O)O)C(=O)O)CC1)C(=O)N[C@@H](CCN)C(=O)N1CCC[C@H]1C(=O)N[C@@H](CCCNC(=N)N)C(=O)NCC(N)=O
B6: C20DA-gGlu4-Sar15-AEPipAc-Tyr-Phe-NMeLeu-Nle-Orn-NMeAla-Arg-Gly-NH2 (peptide)
peptide: EEEEXXXXXXXXXXXXXXXXYFLXXARG
HELM: PEPTIDE1{[O=C(O)CCCCCCCCCCCCCCCCCCC(=O)[*:2]].[gGlu].[gGlu].[gGlu].[gGlu].[Sar].[Sar].[Sar].[Sar].[Sar].[Sar].[Sar].[Sar].[Sar].[Sar].[Sar].[Sar].[Sar].[Sar].[Sar].[O=C(CN1CCN(CCN[*:1])CC1)[*:2]].Y.F.[meL].[Nle].[Orn].[meA].R.G.[am]}$$$$V2.0
SMILES: CCCC[C@H](NC(=O)[C@H](CC(C)C)N(C)C(=O)[C@H](Cc1ccccc1)NC(=O)[C@H](Cc1ccc(O)cc1)NC(=O)CN1CCN(CCNC(=O)CN(C)C(=O)CN(C)C(=O)CN(C)C(=O)CN(C)C(=O)CN(C)C(=O)CN(C)C(=O)CN(C)C(=O)CN(C)C(=O)CN(C)C(=O)CN(C)C(=O)CN(C)C(=O)CN(C)C(=O)CN(C)C(=O)CN(C)C(=O)CN(C)C(=O)CC[C@H](NC(=O)CC[C@H](NC(=O)CC[C@H](NC(=O)CC[C@H](NC(=O)CCCCCCCCCCCCCCCCCCC(=O)O)C(=O)O)C(=O)O)C(=O)O)C(=O)O)CC1)C(=O)N[C@@H](CCCN)C(=O)N(C)[C@@H](C)C(=O)N[C@@H](CCCNC(=N)N)C(=O)NCC(N)=O
B7: C20DA-gGlu3-Sar12-PipAc-Tyr-Phe-NMeLeu-Nle-Arg-Pro-Arg-Gly-NH2 (peptide)
peptide: EEEXXXXXXXXXXXXXYFLXRPRG
HELM: PEPTIDE1{[O=C(O)CCCCCCCCCCCCCCCCCCC(=O)[*:2]].[gGlu].[gGlu].[gGlu].[Sar].[Sar].[Sar].[Sar].[Sar].[Sar].[Sar].[Sar].[Sar].[Sar].[Sar].[Sar].[O=C(CN1CCN([*:1])CC1)[*:2]].Y.F.[meL].[Nle].R.P.R.G.[am]}$$$$V2.0
SMILES: CCCC[C@H](NC(=O)[C@H](CC(C)C)N(C)C(=O)[C@H](Cc1ccccc1)NC(=O)[C@H](Cc1ccc(O)cc1)NC(=O)CN1CCN(C(=O)CN(C)C(=O)CN(C)C(=O)CN(C)C(=O)CN(C)C(=O)CN(C)C(=O)CN(C)C(=O)CN(C)C(=O)CN(C)C(=O)CN(C)C(=O)CN(C)C(=O)CN(C)C(=O)CN(C)C(=O)CC[C@H](NC(=O)CC[C@H](NC(=O)CC[C@H](NC(=O)CCCCCCCCCCCCCCCCCCC(=O)O)C(=O)O)C(=O)O)C(=O)O)CC1)C(=O)N[C@@H](CCCNC(=N)N)C(=O)N1CCC[C@H]1C(=O)N[C@@H](CCCNC(=N)N)C(=O)NCC(N)=O
B8: C20DA-gGlu3-Sar15-PipAc-Tyr-Phe-NMeLeu-Nle-Orn-Pro-Arg-Gly-NH2 (peptide)
peptide: EEEXXXXXXXXXXXXXXXXYFLXXPRG
HELM: PEPTIDE1{[O=C(O)CCCCCCCCCCCCCCCCCCC(=O)[*:2]].[gGlu].[gGlu].[gGlu].[Sar].[Sar].[Sar].[Sar].[Sar].[Sar].[Sar].[Sar].[Sar].[Sar].[Sar].[Sar].[Sar].[Sar].[Sar].[O=C(CN1CCN([*:1])CC1)[*:2]].Y.F.[meL].[Nle].[Orn].P.R.G.[am]}$$$$V2.0
SMILES: CCCC[C@H](NC(=O)[C@H](CC(C)C)N(C)C(=O)[C@H](Cc1ccccc1)NC(=O)[C@H](Cc1ccc(O)cc1)NC(=O)CN1CCN(C(=O)CN(C)C(=O)CN(C)C(=O)CN(C)C(=O)CN(C)C(=O)CN(C)C(=O)CN(C)C(=O)CN(C)C(=O)CN(C)C(=O)CN(C)C(=O)CN(C)C(=O)CN(C)C(=O)CN(C)C(=O)CN(C)C(=O)CN(C)C(=O)CN(C)C(=O)CC[C@H](NC(=O)CC[C@H](NC(=O)CC[C@H](NC(=O)CCCCCCCCCCCCCCCCCCC(=O)O)C(=O)O)C(=O)O)C(=O)O)CC1)C(=O)N[C@@H](CCCN)C(=O)N1CCC[C@H]1C(=O)N[C@@H](CCCNC(=N)N)C(=O)NCC(N)=O

Each binder was assayed against T1, human neuromedin U receptor 1 (assay: cell-based or functional assay).
With B1 the “EC50 (hNMUR1) buffer” value was over 1000 nM.
With B2 the “EC50 (hNMUR1) buffer” value was 1200 nM.
B3 was tested, and the “EC50 (hNMUR1) buffer” value was over 1000 nM.
In the case of B4, the “EC50 (hNMUR1) buffer” value is reported as 220 nM.
B5 was tested, and the “EC50 (hNMUR1) buffer” value was 860 nM.
With B6 the “EC50 (hNMUR1) buffer” value was 1400 nM.
B7 was tested, and the “EC50 (hNMUR1) buffer” value was 72 nM.
With B8 the “EC50 (hNMUR1) buffer” value was 470 nM.
